Measurements reported in publication PMC4383044, “Molecular insights into RNA and DNA helicase evolution from the determinants of specificity for a DEAD-box RNA helicase” (eLife, 2014).

What was measured:
[1] = target: T1, Mss116 helicase core (D1D2, residues 88–597) (Saccharomyces cerevisiae, UniProt P15424); assay: kinetic gel-based dsRNA unwinding; format: biochemical; conditions: 5 mM ATP-Mg, 2 uM D1D2, 125 nM labelled 12-bp dsRNA, pH 7.5, 22 °C
T1 construct: helicase core D1D2 (residues 88-597; D1, D2 and CTE), lacking unstructured N- (37-87) and C-terminal (598-664) extensions; expressed as N-terminal MalE (MBP) fusion in E. coli Rosetta 2; D1D2 used for crystals and kinetic unwinding
T1 sequence (P15424 88-597): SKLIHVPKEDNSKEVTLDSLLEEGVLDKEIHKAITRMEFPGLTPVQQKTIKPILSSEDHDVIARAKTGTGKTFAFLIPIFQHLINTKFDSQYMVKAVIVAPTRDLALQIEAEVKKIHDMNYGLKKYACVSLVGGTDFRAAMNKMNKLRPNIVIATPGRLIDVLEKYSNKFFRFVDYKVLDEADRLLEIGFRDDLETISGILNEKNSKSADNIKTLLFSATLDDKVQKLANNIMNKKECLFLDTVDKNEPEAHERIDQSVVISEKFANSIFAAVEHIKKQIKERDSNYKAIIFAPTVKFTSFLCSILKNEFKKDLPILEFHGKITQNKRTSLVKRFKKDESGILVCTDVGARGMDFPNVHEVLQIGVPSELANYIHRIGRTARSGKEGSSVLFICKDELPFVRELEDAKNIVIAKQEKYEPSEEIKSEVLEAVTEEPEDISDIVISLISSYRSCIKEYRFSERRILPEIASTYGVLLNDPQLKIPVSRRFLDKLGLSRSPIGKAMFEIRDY

Mss116 D2, MBP-tagged [2] = target: T2, Mss116 D2, MBP-tagged (Saccharomyces cerevisiae? (paper: yeast), UniProt P15424 342-597); assay: EMSA; no nucleotide; Hill 1.6; 20 mM Tris-HCl pH 7.5, 100 mM KCl, 10% glycerol, 1 mM DTT, 5 mM MgCl2, 0.1 mg/ml BSA, 22 C, >=1 h; EMSA gels 6% at 4 C in 0.5x TBE; SEC with 200 mM KCl, no BSA; conditions: protein: recombinant; tags: N-terminal MBP (MalE); label: 5' FAM; self-complementary, 2 strand copies, 12 bp
T2 sequence: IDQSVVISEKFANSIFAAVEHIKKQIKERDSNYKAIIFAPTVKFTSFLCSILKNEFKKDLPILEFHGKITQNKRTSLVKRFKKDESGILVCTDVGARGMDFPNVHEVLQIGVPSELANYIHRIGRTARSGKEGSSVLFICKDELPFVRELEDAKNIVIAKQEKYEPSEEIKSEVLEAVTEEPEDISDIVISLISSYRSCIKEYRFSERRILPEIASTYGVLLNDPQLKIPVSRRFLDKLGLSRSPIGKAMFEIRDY

[3] = target: T3, Mss116 helicase core D1D2 (Saccharomyces cerevisiae? (paper: yeast), UniProt P15424 88-597); assay: SEC; 5 mM ADP-BeFx; A260/A280 0.6, open; no complex maintained on column; 20 mM Tris-HCl pH 7.5, 100 mM KCl, 10% glycerol, 1 mM DTT, 5 mM MgCl2, 0.1 mg/ml BSA, 22 C, >=1 h; EMSA gels 6% at 4 C in 0.5x TBE; SEC with 200 mM KCl, no BSA; conditions: protein: recombinant; tags: expressed as MalE fusion; self-complementary, 2 strand copies, 12 bp
T3 sequence: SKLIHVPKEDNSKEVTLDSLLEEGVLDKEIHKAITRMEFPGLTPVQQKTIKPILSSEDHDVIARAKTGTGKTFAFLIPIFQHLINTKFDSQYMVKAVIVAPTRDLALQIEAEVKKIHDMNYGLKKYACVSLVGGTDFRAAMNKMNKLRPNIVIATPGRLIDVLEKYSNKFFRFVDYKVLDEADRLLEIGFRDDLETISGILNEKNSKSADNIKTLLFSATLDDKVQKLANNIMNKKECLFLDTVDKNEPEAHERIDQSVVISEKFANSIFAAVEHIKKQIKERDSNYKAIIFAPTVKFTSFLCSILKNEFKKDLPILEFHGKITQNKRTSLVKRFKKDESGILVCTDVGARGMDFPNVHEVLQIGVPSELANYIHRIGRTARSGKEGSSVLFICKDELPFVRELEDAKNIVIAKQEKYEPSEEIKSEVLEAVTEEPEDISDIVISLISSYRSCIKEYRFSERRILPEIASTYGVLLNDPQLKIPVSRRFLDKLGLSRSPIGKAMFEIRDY

Mss116 D2, MBP-tagged [4] = target: T2, Mss116 D2, MBP-tagged; assay: competition; unlabeled B-DNA displacing 250 nM 5' FAM-dsRNA from 500 nM MBP-D2; 20 mM Tris-HCl pH 7.5, 100 mM KCl, 10% glycerol, 1 mM DTT, 5 mM MgCl2, 0.1 mg/ml BSA, 22 C, >=1 h; EMSA gels 6% at 4 C in 0.5x TBE; SEC with 200 mM KCl, no BSA; conditions: protein: recombinant; tags: N-terminal MBP (MalE); self-complementary, 2 strand copies, 12 bp
Mss116 D2, MBP-tagged [5] = target: T2, Mss116 D2, MBP-tagged; assay: competition; unlabeled dsRNA displacing 250 nM 5' FAM-B-DNA from 500 nM MBP-D2; 20 mM Tris-HCl pH 7.5, 100 mM KCl, 10% glycerol, 1 mM DTT, 5 mM MgCl2, 0.1 mg/ml BSA, 22 C, >=1 h; EMSA gels 6% at 4 C in 0.5x TBE; SEC with 200 mM KCl, no BSA; conditions: protein: recombinant; tags: N-terminal MBP (MalE); self-complementary, 2 strand copies, 12 bp
Mss116 D2, MBP-tagged [6] = target: T2, Mss116 D2, MBP-tagged; assay: EMSA; no nucleotide; Hill 2.2; 20 mM Tris-HCl pH 7.5, 100 mM KCl, 10% glycerol, 1 mM DTT, 5 mM MgCl2, 0.1 mg/ml BSA, 22 C, >=1 h; EMSA gels 6% at 4 C in 0.5x TBE; SEC with 200 mM KCl, no BSA; conditions: protein: recombinant; tags: N-terminal MBP (MalE); label: 5' FAM; self-complementary, 2 strand copies, 12 bp
[7] = target: T4, Mss116 helicase core D1D2, MBP-tagged (Saccharomyces cerevisiae? (paper: yeast), UniProt P15424 88-597); assay: gel-based fluorescence closed-state/unwinding assay; ADP-BeFx titrated (value is nucleotide concentration), 2 uM protein; 20 mM Tris-HCl pH 7.5, 100 mM KCl, 10% glycerol, 1 mM DTT, 5 mM MgCl2, 0.1 mg/ml BSA, 22 C, >=1 h; EMSA gels 6% at 4 C in 0.5x TBE; SEC with 200 mM KCl, no BSA; conditions: protein: recombinant; tags: N-terminal MBP (MalE); label: 5' FAM, 3' Iowa Black FQ; self-complementary, 2 strand copies, 12 bp
T4 sequence: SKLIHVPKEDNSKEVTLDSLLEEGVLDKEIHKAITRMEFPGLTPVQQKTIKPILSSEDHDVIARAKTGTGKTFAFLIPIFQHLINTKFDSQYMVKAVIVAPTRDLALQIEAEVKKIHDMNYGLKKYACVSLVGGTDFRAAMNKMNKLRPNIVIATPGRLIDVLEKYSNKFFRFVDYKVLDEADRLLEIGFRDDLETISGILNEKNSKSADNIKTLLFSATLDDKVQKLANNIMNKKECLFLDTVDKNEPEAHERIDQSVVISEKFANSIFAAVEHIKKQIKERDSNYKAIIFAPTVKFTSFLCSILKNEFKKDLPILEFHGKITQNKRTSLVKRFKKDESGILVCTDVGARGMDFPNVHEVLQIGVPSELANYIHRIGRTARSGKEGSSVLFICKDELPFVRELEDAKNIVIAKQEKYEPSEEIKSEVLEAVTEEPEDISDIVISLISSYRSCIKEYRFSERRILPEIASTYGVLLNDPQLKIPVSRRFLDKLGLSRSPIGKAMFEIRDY

Mss116 D2, MBP-tagged [8] = target: T2, Mss116 D2, MBP-tagged; assay: EMSA; no nucleotide; Hill 1.5; 20 mM Tris-HCl pH 7.5, 100 mM KCl, 10% glycerol, 1 mM DTT, 5 mM MgCl2, 0.1 mg/ml BSA, 22 C, >=1 h; EMSA gels 6% at 4 C in 0.5x TBE; SEC with 200 mM KCl, no BSA; conditions: protein: recombinant; tags: N-terminal MBP (MalE); label: 5' FAM; self-complementary, 2 strand copies, 12 bp

## Nc1ncnc2c1ncn2[C@@H]1O[C@H](COP(=O)(O)OP(=O)(O)OP(=O)(O)O)[C@@H](O)[C@H]1O [ATP]
[1]
  kinetic gel-based dsRNA unwinding: only ATP, and not other NTPs, catalyzes the unwinding of the dsRNA

B1: 12-bp B-DNA duplex, 5' FAM (dsDNA)
DNA 1: GCGCGCGCGCGC
DNA 2: GCGCGCGCGCGC
Mss116 D2, MBP-tagged [2]
  apparent K (half saturation): 510 nM

B2: 12-bp B-DNA duplex, unlabeled (dsDNA)
DNA 1: GCGCGCGCGCGC
DNA 2: GCGCGCGCGCGC
[3]
  binding result: no binding
Mss116 D2, MBP-tagged [4]
  Ki: 1.7 ± 0.2 µM

B3: 12-bp dsRNA, unlabeled (dsRNA)
RNA 1: CCCCCGCGGGGG
RNA 2: CCCCCGCGGGGG
Mss116 D2, MBP-tagged [5]
  Ki: 0.86 ± 0.04 µM

B4: 12-bp dsRNA, 5' FAM (dsRNA)
RNA 1: CCCCCGCGGGGG
RNA 2: CCCCCGCGGGGG
Mss116 D2, MBP-tagged [6]
  apparent K (half saturation): 400 nM

B5: 12-bp dsRNA, FAM/IBFQ (dsRNA)
RNA 1: CCCCCGCGGGGG
RNA 2: CCCCCGCGGGGG
[7]
  apparent K (half saturation): 140 µM

B6: 12-bp A-DNA duplex, 5' FAM (dsDNA)
DNA 1: CCCCCGCGGGGG
DNA 2: CCCCCGCGGGGG
Mss116 D2, MBP-tagged [8]
  apparent K (half saturation): 410 nM
